{
  "source": "patent US20240263191",
  "target": "KLF15 (hKLF15) (Homo sapiens) (UniProt Q9UIH9)",
  "sequence (Q9UIH9 whole entry, the tested form may be a part)": "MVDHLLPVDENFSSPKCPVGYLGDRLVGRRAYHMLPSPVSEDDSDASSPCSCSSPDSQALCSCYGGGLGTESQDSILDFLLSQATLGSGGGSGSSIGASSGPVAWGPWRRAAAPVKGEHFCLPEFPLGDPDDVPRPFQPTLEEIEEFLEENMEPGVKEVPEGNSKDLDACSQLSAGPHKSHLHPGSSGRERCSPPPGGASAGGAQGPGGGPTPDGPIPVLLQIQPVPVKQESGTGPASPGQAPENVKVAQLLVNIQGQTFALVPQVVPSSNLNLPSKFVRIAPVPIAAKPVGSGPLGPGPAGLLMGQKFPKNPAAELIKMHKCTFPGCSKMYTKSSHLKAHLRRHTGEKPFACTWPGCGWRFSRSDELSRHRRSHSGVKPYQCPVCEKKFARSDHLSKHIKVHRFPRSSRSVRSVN",
  "assay": "cell_activity",
  "details": "AAV8-GNAT1-hKLF15 subretinal in pig, 2x10^10 gc, 15 days; 38% repression of protein",
  "data": [
    {"substance": "endogenous porcine Rho promoter (hRHO-cis highly conserved)", "values": [
      {"measurement": "activity (% repression of Rho transcript)", "result": 45}
    ]}
  ]
}
